“Also recorded” adds a separate entry of the source. Values belong to the molecule of their own block, whether it stands above or below them. Numbered stars: 1 amine (or outer) side, 2 acyl side, 3 side chain; on linkers, the order of the positions; unused ones are H or OH. Square brackets hold non-standard residues; d marks the D form. Peptide text beside a SMILES is read from it. Cys(Me) = S-methylcysteine, cys(Me), CSC[C@H](N[*:1])C(=O)[*:2]; Pen = CC(C)(S)[C@H](N)C(=O)O; hLeu = CC(C)CC[C@H](N)C(=O)O; hCys = N[C@@H](CCS)C(=O)O; Nle = CCCC[C@H](N)C(=O)O; Nva = CCC[C@H](N)C(=O)O; Aib = CC(C)(N)C(=O)O
Legend:
HIF-2α PAS-B = assay: 2α (μM)
Description: Table printed on a drawing sheet, Figure 3 (part 1 of 3) A
Head of the field: 2α (μM)
The patent's description of the figure: FIG. 3

HIF-2α PAS-B (240-350) = target: T1, HIF-2α PAS-B (240-350) (Homo sapiens, UniProt Q99814); assay: MST binding to recombinantly expressed HIF-2α PAS-B domain; settings: MST, recombinant HIF-2α PAS-B domain; read-out: Kd / binding affinity for 2α PAS-B
T1 construct: HIF-2α PAS-B (240-350); His tag; made in house; host or cells: E. coli BL21(DE3)-Rosetta, pET28a
Experimental: The three lead peptides were next chemically synthesised, using Fmoc-solid phase peptide synthesis methodology, followed by in-solution cyclisation under high dilution conditions.
Genes encoding for human HIF-1α PAS-B (238-349) and HIF-2α PAS-B (240-350) were each cloned into pET28a vectors at the BamHI and SacI restriction sites. The recombinant plasmids were next transformed into BL21(DE3)-Rosetta chemically competent cells. Cells were grown in LB media at 37° C. to an OD600 of 0.7, after which expression was induced by addition of 0.5 mM IPTG. Following overnight expression at 16° C., cells were pelleted and resuspended in buffer containing 50 mM Tris, 150 mM NaCl, 5% glycerol, 1 mM TCEP, protease inhibitors (Roche) and 20 mM imidazole, pH 8.0. Cells were lysed by sonication, and the supernatant applied to a 1 mL Histrap FF affinity column. The His-tagged protein of interest was eluted with buffer containing 50 mM Tris, 150 mM NaCl, 5% glycerol, 1 mM TCEP and 250 mM imidazole. The protein was then loaded onto a HiLoad 16/600 superdex 75 pg size exclusion column (GE healthcare) equilibrated with assay buffer containing 50 mM Tris, 150 mM NaCl, 5% glycerol and 1 mM TCEP, pH 8.0. Fractions containing the desired protein were flash-frozen and stored at −80° C. prior to use. […]

HIF-1α PAS-B (238-349) = target: T2, HIF-1α PAS-B (238-349) (Homo sapiens, UniProt Q16665); assay: MST binding to recombinantly expressed HIF-1α PAS-B domain; settings: for affinity for the PAS-B domain of HIF-1α compared with cyclo-CLLFVY: compared with previously reported HIF-1 dimerization inhibitor
T2 construct: human HIF-1α PAS-B (238-349); His tag; made in house; host or cells: E. coli BL21(DE3)-Rosetta, pET28a
Experimental: Genes encoding for human HIF-1α PAS-B (238-349) and HIF-2α PAS-B (240-350) were each cloned into pET28a vectors at the BamHI and SacI restriction sites. The recombinant plasmids were next transformed into BL21(DE3)-Rosetta chemically competent cells. Cells were grown in LB media at 37° C. to an OD600 of 0.7, after which expression was induced by addition of 0.5 mM IPTG. Following overnight expression at 16° C., cells were pelleted and resuspended in buffer containing 50 mM Tris, 150 mM NaCl, 5% glycerol, 1 mM TCEP, protease inhibitors (Roche) and 20 mM imidazole, pH 8.0. Cells were lysed by sonication, and the supernatant applied to a 1 mL Histrap FF affinity column. The His-tagged protein of interest was eluted with buffer containing 50 mM Tris, 150 mM NaCl, 5% glycerol, 1 mM TCEP and 250 mM imidazole. The protein was then loaded onto a HiLoad 16/600 superdex 75 pg size exclusion column (GE healthcare) equilibrated with assay buffer containing 50 mM Tris, 150 mM NaCl, 5% glycerol and 1 mM TCEP, pH 8.0. Fractions containing the desired protein were flash-frozen and stored at −80° C. prior to use.
(§1) HIF-α proteins were labelled with Monolith NT-647 labelling dye (Nanotemper Technologies GmbH) according to the manufacturer's instructions. MST experiments were performed on a Monolith NT.115 system (Nanotemper Technologies GmbH), in assay buffer containing 50 nM labelled protein, 10% DMSO and 0.05% TWEEN-20. MST measurements were performed using 50% LED and 50% MST power.

[1] = target: T3, human HIF-1α PAS-B (238-349), recombinant, His-tagged (human, UniProt Q16665 238-349, labelled with Monolith NT-647 dye for MST); assay: MST, HIF-1α PAS-B; bar chart of Kd (µM) for residues at position 5 of CRLIIF
T3 construct: range 238-349; Expressed in E. coli BL21(DE3)-Rosetta from pET28a; also called HIF-1α PAS-B domain; PAS-B domain of HIF-1α; not shown: His tag from pET28a vector (BamHI/SacI cloning)

[2] = target: T4, human HIF-2α PAS-B (240-350), recombinant, His-tagged (human, UniProt Q99814 240-350, labelled with Monolith NT-647 dye for MST); assay: MST, HIF-2α PAS-B (column 2α (µM))
T4 construct: range 240-350; Expressed in E. coli BL21(DE3)-Rosetta from pET28a; also called PAS-B domain of HIF-2α; not shown: His tag from pET28a vector (BamHI/SacI cloning)

[3] = target: T3, human HIF-1α PAS-B (238-349), …; assay: MST, HIF-1α PAS-B; bar chart of Kd (µM) for residues at position 1 of CRLIIF
[4] = target: T3, human HIF-1α PAS-B (238-349), …; assay: MST, NT-647-labelled recombinant 1α PAS-B
Experimental: as §1

[5] = target: T3, human HIF-1α PAS-B (238-349), …; assay: MST, HIF-1α PAS-B (column 1α (µM))

T2 sequence (Q16665 238-349): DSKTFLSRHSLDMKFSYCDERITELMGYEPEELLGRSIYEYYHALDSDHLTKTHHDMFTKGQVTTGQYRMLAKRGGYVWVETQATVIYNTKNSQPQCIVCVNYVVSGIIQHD
T3 sequence (Q16665 238-349): as above
T4 sequence (Q99814 240-350): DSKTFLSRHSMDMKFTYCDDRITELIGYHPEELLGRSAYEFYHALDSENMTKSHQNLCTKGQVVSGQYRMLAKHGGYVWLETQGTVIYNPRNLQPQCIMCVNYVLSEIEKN
T1 sequence (Q99814 240-350): as above

Kd (HIF-2α PAS-B (240-350)): 10 to 14 µM
Kd (HIF-1α PAS-B (238-349); MST, recombinant HIF-1α PAS-B domain, read-out: Kd / binding affinity for 1α PAS-B): 10 to 14 µM
affinity for the PAS-B domain of HIF-1α compared with cyclo-CLLFVY (HIF-1α PAS-B (238-349)): improved affinities
Molecule: CC[C@H](C)[C@@H]1NC(=O)[C@H](CC(C)C)NC(=O)[C@H](CC(C)C)NC(=O)[C@H](CCCNC(=N)N)NC(=O)[C@H](CS)NC(=O)[C@H](Cc2ccccc2)NC1=O [Cyclic peptide #2, cyclo-cys arg leu leu ile phe] (cyclo(CRLLIF))

Kd (HIF-2α PAS-B): 269 ± 7 µM
Molecule: CC[C@H](C)[C@@H]1NC(=O)[C@H](CC(C)C)NC(=O)[C@H](CCCNC(=N)N)NC(=O)[C@H](CS)NC(=O)[C@H](Cc2ccccc2)NC(=O)[C@H](C)NC1=O [compound 10, CRLIAF]

Kd [2]: 373 µM
Kd [5]: 91 µM
B3: cyclo-cys arg leu ile ile ala (peptide)
peptide: CRLIIA
modifications: head-to-tail cyclic (cyclo-)
notes: also called CRLIIA; cyclic peptide #8

binding result [1]: binds
B4: cyclo-cys arg leu ile val phe (peptide)
peptide: CRLIVF
modifications: head-to-tail cyclic (cyclo-)
notes: also called Cyclo-CRLIVF; cyclic peptide #37

Kd [3]: 108 µM
B5: M (peptide)
cyclic peptide: MRLIIF
modifications: head-to-tail cyclised
notes: Bar 'M' in the chart of C1 substitutions of CRLIIF; Comparative peptide; also called Cyclo-MRLIIF; cyclo-met arg leu ile ile phe

binding result [1]: binds
B6: cyclo-cys arg leu ile leu phe (peptide)
peptide: CRLILF
modifications: head-to-tail cyclic (cyclo-)
notes: also called Cyclo-CRLILF; cyclic peptide #36

Kd [3]: 169 µM
B7: S (peptide)
cyclic peptide: SRLIIF
modifications: head-to-tail cyclised
notes: Bar 'S' in the chart of C1 substitutions of CRLIIF; Comparative peptide; also called Cyclo-SRLIIF; cyclo-ser arg leu ile ile phe

Kd [2]: 269 µM
Kd [5]: 111 µM
B10: cyclo-cys arg leu ile ala phe (peptide)
peptide: CRLIAF
modifications: head-to-tail cyclic (cyclo-)
notes: also called CRLIAF; cyclic peptide #7

Kd [2]: 61 µM
Kd [5]: 13 µM
B11: cyclo-cys arg leu ala ile phe (peptide)
peptide: CRLAIF
modifications: head-to-tail cyclic (cyclo-)
notes: also called CRLAIF; cyclic peptide #6

Kd [3]: > 200 µM
B12: T (peptide)
cyclic peptide: TRLIIF
modifications: head-to-tail cyclised
notes: Bar 'T' in the chart of C1 substitutions of CRLIIF; Comparative peptide; also called Cyclo-TRLIIF; cyclo-thr arg leu ile ile phe

Kd [2]: 52 µM
Kd [5]: 53 µM
B13: cyclo-cys arg ala ile ile phe (peptide)
peptide: CRAIIF
modifications: head-to-tail cyclic (cyclo-)
notes: also called CRAIIF; cyclic peptide #11

Kd [3]: 62 µM
B15: C(Me) (peptide)
cyclic peptide: cyclo([Cys(Me)]RLIIF)
SMILES: CC[C@H](C)[C@@H]1NC(=O)[C@H](CC(C)C)NC(=O)[C@H](CCCNC(=N)N)NC(=O)[C@H](CSC)NC(=O)[C@H](Cc2ccccc2)NC(=O)[C@H]([C@@H](C)CC)NC1=O
notes: Bar 'C(Me)' in the chart of C1 substitutions of CRLIIF; Comparative peptide; also called Cyclo-C(Me)RLIIF; cyclo-(methyl)cys arg leu ile ile phe

binding result [1]: binds
B19: cyclo-cys arg leu ile (n-leu) phe (peptide)
peptide: cyclo(CRLI[Nle]F)
SMILES: CCCC[C@@H]1NC(=O)[C@H]([C@@H](C)CC)NC(=O)[C@H](CC(C)C)NC(=O)[C@H](CCCNC(=N)N)NC(=O)[C@H](CS)NC(=O)[C@H](Cc2ccccc2)NC1=O
notes: also called Cyclo-CRLI(Nle)F; cyclic peptide #34

The remaining lines, values behind:

Molecule: CC[C@H](C)[C@@H]1NC(=O)[C@H](C)NC(=O)[C@H](CCCNC(=N)N)NC(=O)[C@H](CS)NC(=O)[C@H](Cc2ccccc2)NC(=O)[C@H]([C@@H](C)CC)NC1=O [compound 8, CRAIIF] (cyclo(CRAIIF))
Kd (HIF-2α PAS-B): 52 ± 7 µM

Molecule: CC[C@H](C)[C@@H]1NC(=O)[C@H](CC(C)C)NC(=O)[C@H](CCCNC(=N)N)NC(=O)[C@H](C)NC(=O)[C@H](Cc2ccccc2)NC(=O)[C@H]([C@@H](C)CC)NC1=O [Cyclic peptide #9, cyclo-ala agr leu ile ile phe] (cyclo(ARLIIF))
Kd / binding affinity for 1α PAS-B (HIF-1α PAS-B (238-349); MST, recombinant HIF-1α PAS-B domain): could not be determined

Molecule: CC[C@H](C)[C@@H]1NC(=O)[C@H](CC(C)C)NC(=O)[C@H](CCCNC(=N)N)NC(=O)[C@H](CS)NC(=O)[C@H](Cc2ccccc2)NC(=O)C(C)(C)NC1=O [Cyclic peptide #38, cyclo-cys agr leu ile (Aib) phe (Aib)F] (cyclo([Aib]FCRLI))
affinity relative to parent peptide CRLIIF (in words) (HIF-1α PAS-B (238-349); MST, SAR substitutions, listed as Aib derivative): weaker Kd than the parent compound; also recorded: markedly improved affinity over both the alanine and aminobutyric acid

Molecule: CC[C@H](C)[C@@H]1NC(=O)[C@H](CC(C)C)NC(=O)[C@H](CCCCN)NC(=O)[C@H](CS)NC(=O)[C@H](Cc2ccccc2)NC(=O)[C@H]([C@@H](C)CC)NC1=O [Cyclic peptide #1, cyclo-cys lys leu ile ile phe] (cyclo(CKLIIF))
selectivity between 1α and 2α PAS-B domains (in words) (HIF-1α PAS-B (238-349); MST, 1α vs 2α PAS-B): little difference in selectivity
affinity for the PAS-B domain of HIF-1α compared with cyclo-CLLFVY (HIF-1α PAS-B (238-349)): improved affinities

B1: cyclo-cys arg leu ile h-leu phe (peptide)
peptide: cyclo(CRLI[hLeu]F)
SMILES: CC[C@H](C)[C@@H]1NC(=O)[C@H](CC(C)C)NC(=O)[C@H](CCCNC(=N)N)NC(=O)[C@H](CS)NC(=O)[C@H](Cc2ccccc2)NC(=O)[C@H](CCC(C)C)NC1=O
notes: also called Cyclo-CRLI(hL)F; cyclic peptide #33
binding result [1]: binds

B2: cyclo-cys arg leu ile ile phe (peptide)
peptide: CRLIIF
modifications: head-to-tail cyclic (cyclo-)
notes: also called CRLIIF; cyclic peptide #4
Kd [2]: 11 µM
Kd [3]: 3.9 µM
Kd [4]: 3.8 µM
fold greater affinity than CKLLIF [4]: ~3 fold

B8: cyclo-cys lys leu leu ile phe (peptide)
peptide: cyclo(CKLLIF)
modifications: not fully specified
notes: also called CKLLIF; cyclic peptide #5
Kd [4]: 12 µM

B9: cyclo-cys ala leu ile ile phe (peptide)
peptide: CALIIF
modifications: head-to-tail cyclic (cyclo-)
notes: also called CALIIF; cyclic peptide #10
Kd [2]: 12 µM
Kd [5]: 30 µM

B14: cyclo-ala arg leu ile ile phe (peptide)
peptide: ARLIIF
modifications: head-to-tail cyclic (cyclo-)
notes: also called ARLIIF; cyclic peptide #9
Kd [3]: > 200 µM

B16: cyclo-Pen arg leu ile ile phe (peptide)
peptide: cyclo([Pen]RLIIF)
SMILES: CC[C@H](C)[C@@H]1NC(=O)[C@H](CC(C)C)NC(=O)[C@H](CCCNC(=N)N)NC(=O)[C@H](C(C)(C)S)NC(=O)[C@H](Cc2ccccc2)NC(=O)[C@H]([C@@H](C)CC)NC1=O
notes: also called Cyclo-PenRLIIF; cyclic peptide #12d
Kd [3]: 9 µM

B17: cyclo-hcys arg leu ile ile phe (peptide)
peptide: cyclo([hCys]RLIIF)
SMILES: CC[C@H](C)[C@@H]1NC(=O)[C@H](CC(C)C)NC(=O)[C@H](CCCNC(=N)N)NC(=O)[C@H](CCS)NC(=O)[C@H](Cc2ccccc2)NC(=O)[C@H]([C@@H](C)CC)NC1=O
notes: also called Cyclo-hCRLIIF; cyclic peptide #13d
Kd [3]: 44 µM

B18: cyclo-cys arg leu ile (Nva) phe (peptide)
peptide: cyclo(CRLI[Nva]F)
SMILES: CCC[C@@H]1NC(=O)[C@H]([C@@H](C)CC)NC(=O)[C@H](CC(C)C)NC(=O)[C@H](CCCNC(=N)N)NC(=O)[C@H](CS)NC(=O)[C@H](Cc2ccccc2)NC1=O
notes: also called Cyclo-CRLI(Nva)F; cyclic peptide #35
binding result [1]: binds

From patent publication US20240270793A1, “COMPOSITIONS” (UNIVERSITY OF SOUTHAMPTON, priority 2020, published 2024)
